The chains are these.
B1: CE115HA000 N53D (antibody, name in Kabat numbering, V domains shown)
VH: QVQLVESGGGVVQPGRSLRLSCAASGFTFSNAWMHWVRQAPGKGLEWVAQIKAKSDNYATYYAESVKGRFTISRDDSKNSLYLQMNSLKTEDTAVYYCRYVHYGAYYGVDAWGQGTTVTVSS
VL: DIVMTQSPLSLPVTPGEPASISCRSSQSLVHSNRNTYLHWYQQKPGQAPRLLIYKVSNRFSGVPDRFSGSGSGTDFTLKISRVEAEDVGVYYCGQGTQVPYTFGQGTKLEIK
B2: CE115HA000 N53H (antibody, name in Kabat numbering, V domains shown)
VH: B1 VH with D56H
VL: B1 VL
B3: CE115HA000 Q105E (antibody, name in Kabat numbering, V domains shown)
VH: B1 VH with D56N, Q114E
VL: B1 VL
B4: CE115HA000 R16Q (antibody, name in Kabat numbering, V domains shown)
VH: B1 VH with R16Q, D56N
VL: B1 VL
B5: CE115HA000 Q50D (antibody, name in Kabat numbering, V domains shown)
VH: B1 VH with Q50D, D56N
VL: B1 VL
B6: CE115HA000 N54F (antibody, name in Kabat numbering, V domains shown)
VH: B1 VH with D56N, N57F
VL: B1 VL
B7: CE115HA000 N53S (antibody, name in Kabat numbering, V domains shown)
VH: B1 VH with D56S
VL: B1 VL
B8: CE115HA000 N53I (antibody, name in Kabat numbering, V domains shown)
VH: B1 VH with D56I
VL: B1 VL
B9: CE115HA000 Q50A (antibody, name in Kabat numbering, V domains shown)
VH: B1 VH with Q50A, D56N
VL: B1 VL
B10: CE115HA000 Q50S (antibody, name in Kabat numbering, V domains shown)
VH: B1 VH with Q50S, D56N
VL: B1 VL
B11: CE115HA000 N53W (antibody, name in Kabat numbering, V domains shown)
VH: B1 VH with D56W
VL: B1 VL
B12: CE115HA000 Q50Y (antibody, name in Kabat numbering, V domains shown)
VH: B1 VH with Q50Y, D56N
VL: B1 VL
B13: CE115HA000 N53Q (antibody, name in Kabat numbering, V domains shown)
VH: B1 VH with D56Q
VL: B1 VL
B14: CE115HA000 S30D (antibody, name in Kabat numbering, V domains shown)
VH: B1 VH with S30D, D56N
VL: B1 VL
B15: CE115HA000 N54D (antibody, name in Kabat numbering, V domains shown)
VH: B1 VH with D56N, N57D
VL: B1 VL
B16: CE115HA000 N54L (antibody, name in Kabat numbering, V domains shown)
VH: B1 VH with D56N, N57L
VL: B1 VL
B17: CE115HA000 N54S (antibody, name in Kabat numbering, V domains shown)
VH: B1 VH with D56N, N57S
VL: B1 VL
B18: CE115HA000 Q50L (antibody, name in Kabat numbering, V domains shown)
VH: B1 VH with Q50L, D56N
VL: B1 VL
B19: CE115HA000 N54A (antibody, name in Kabat numbering, V domains shown)
VH: B1 VH with D56N, N57A
VL: B1 VL
B20: CE115HA000 N53G (antibody, name in Kabat numbering, V domains shown)
VH: B1 VH with D56G
VL: B1 VL
B21: CE115HA000 Q50I (antibody, name in Kabat numbering, V domains shown)
VH: B1 VH with Q50I, D56N
VL: B1 VL
B22: CE115HA000 R16E (antibody, name in Kabat numbering, V domains shown)
VH: B1 VH with R16E, D56N
VL: B1 VL
B23: CE115HA000 N54Q (antibody, name in Kabat numbering, V domains shown)
VH: B1 VH with D56N, N57Q
VL: B1 VL
B24: CE115HA000 Q50E (antibody, name in Kabat numbering, V domains shown)
VH: B1 VH with Q50E, D56N
VL: B1 VL
B25: CE115HA000 R19T (antibody, name in Kabat numbering, V domains shown)
VH: B1 VH with R19T, D56N
VL: B1 VL
B26: CE115HA000 S30G (antibody, name in Kabat numbering, V domains shown)
VH: B1 VH with S30G, D56N
VL: B1 VL
B27: CE115HA000 N54G (antibody, name in Kabat numbering, V domains shown)
VH: B1 VH with D56N, N57G
VL: B1 VL
B28: CE115HA000 Q50K (antibody, name in Kabat numbering, V domains shown)
VH: B1 VH with Q50K, D56N
VL: B1 VL
B29: CE115HA000 N54K (antibody, name in Kabat numbering, V domains shown)
VH: B1 VH with D56N, N57K
VL: B1 VL
B30: CE115HA000 N53K (antibody, name in Kabat numbering, V domains shown)
VH: B1 VH with D56K
VL: B1 VL

The values that follow come from patent US20220040297A1 (Chugai, published 2022).

Substitutions are numbered along the chain they refer to. Names may count otherwise.

The target in this test is T1, CD3ε homodimer protein (human, UniProt P07766 23-126, limits assumed, sulfo-tag or biotin label in some ECL assays).
T1 construct: also called human CD3ε homodimer protein; CD3 (CD3ε)
T1 sequence (P07766 23-126 limits assumed): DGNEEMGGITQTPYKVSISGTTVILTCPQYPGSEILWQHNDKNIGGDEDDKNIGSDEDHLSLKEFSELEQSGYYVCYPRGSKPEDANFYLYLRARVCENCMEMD
As to the kind of experiment: SPR, CD3ε homodimer on chip.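 Note: biacore SPR with antibody variants flowed as analyte over amine-coupled CD3ε homodimer on a CM chip, bound amount of each single-residue H chain variant over that of parent.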 On the technique in general: SPR reads the build-up and loss of mass on a sensor chip optically.
Description: An appropriate amount of CD3ε homodimer protein was immobilized onto Sensor chip CM4 (GE Healthcare Japan Corp.) by the amine coupling method. Then, the antibody having an appropriate concentration was injected thereto as an analyte and allowed to interact with the CD3ε homodimer protein on the sensor chip. Then, the sensor chip was regenerated by the injection of 10 mmol/L glycine-HCl (pH 1.5). The assay was conducted at 25° C., and HBS-EP+ (GE Healthcare Japan Corp.) was used as a running buffer. […] Each parameter was calculated using Biacore T200 Evaluation Software (GE Healthcare Japan Corp.).
Specifically, when the amount of the antibody comprising CE115HA000 bound was defined as X and the amount of the H chain one-amino acid altered form bound was defined as Y, a value of Z (ratio of amounts bound)=Y/X was used.
Turning to B1, the “ratio of amounts bound vs CE115HA000” value turned out to be 0.39.

On to B2, for which the “ratio of amounts bound vs CE115HA000” value is 0.76.

With B3, the “ratio of amounts bound vs CE115HA000” value amounted to 0.94.

On to B4, for which the “ratio of amounts bound vs CE115HA000” value worked out at 0.9.

B5: the “ratio of amounts bound vs CE115HA000” value was 0.27.

With B6, the “ratio of amounts bound vs CE115HA000” value was found to be 1.12.

As to B7, the “ratio of amounts bound vs CE115HA000” value is 0.83.

As for B8, the “ratio of amounts bound vs CE115HA000” value worked out at 0.68.

Take B9: the “ratio of amounts bound vs CE115HA000” value was 0.24.

Turning to B10, the “ratio of amounts bound vs CE115HA000” value was 0.24.

As for B11, the “ratio of amounts bound vs CE115HA000” value stood at 0.88.

For B12, the “ratio of amounts bound vs CE115HA000” value amounted to 0.25.

With B13, the “ratio of amounts bound vs CE115HA000” value came to 1.1.

As for B14, the “ratio of amounts bound vs CE115HA000” value turned out to be 0.86.

On to B15, for which the “ratio of amounts bound vs CE115HA000” value turned out to be 0.62.

As for B16, the “ratio of amounts bound vs CE115HA000” value was found to be 0.94.

As to B17, the “ratio of amounts bound vs CE115HA000” value was 0.84.

B18: the “ratio of amounts bound vs CE115HA000” value came to 0.23.

As for B19, the “ratio of amounts bound vs CE115HA000” value is 0.85.

In the case of B20, the “ratio of amounts bound vs CE115HA000” value worked out at 0.5.

In the case of B21, the “ratio of amounts bound vs CE115HA000” value turned out to be 0.4.

For the molecule B22, the “ratio of amounts bound vs CE115HA000” value is 0.88.

On to B23, for which the “ratio of amounts bound vs CE115HA000” value came to 0.84.

Take B24: the “ratio of amounts bound vs CE115HA000” value was 0.26.

Take B25: the “ratio of amounts bound vs CE115HA000” value amounted to 0.8.

Consider B26, for which the “ratio of amounts bound vs CE115HA000” value came to 1.01.

Take B27: the “ratio of amounts bound vs CE115HA000” value was 0.98.

As to B28, the “ratio of amounts bound vs CE115HA000” value was found to be 0.33.

As for B29, the “ratio of amounts bound vs CE115HA000” value was 1.2.

In the case of B30, the “ratio of amounts bound vs CE115HA000” value was 0.78.
